{"source": "paper PMC8948145", "about": "“Piperonal synthase from black pepper (Piper nigrum) synthesizes a phenolic aroma compound, piperonal, as a CoA-independent catalysis” (Applied Biological Chemistry, 2022)", "system": "O=C(O)/C=C/c1ccc2c(c1)OCO2", "experiment": "GC-MS quantitation of piperonal, Michaelis-Menten fit", "type": "biochemical, Piper nigrum", "conditions": "50 µM to 1.6 mM substrate; no ATP, CoA-SH or NAD+; pH of the kinetic assay not printed in main text", "data": [{"substance": "PnPNS (piperonal synthase; PnMCHL, 3,4-methylenedioxycinnamic acid hydratase-lyase) (Piper nigrum)", "values": [{"measurement": "Km", "value": 317.2, "unit": "µM"}, {"measurement": "kcat", "value": 2.7, "unit": "s⁻¹"}]}]}
